Results from patent US20140051120A1 (Genentech, published 2014).
Where no end group is shown, it is not given here.

T1: mouse EGFL7 (mEGFL7-CB-His) (mouse, UniProt Q9QXT5 22-275)
T1 sequence: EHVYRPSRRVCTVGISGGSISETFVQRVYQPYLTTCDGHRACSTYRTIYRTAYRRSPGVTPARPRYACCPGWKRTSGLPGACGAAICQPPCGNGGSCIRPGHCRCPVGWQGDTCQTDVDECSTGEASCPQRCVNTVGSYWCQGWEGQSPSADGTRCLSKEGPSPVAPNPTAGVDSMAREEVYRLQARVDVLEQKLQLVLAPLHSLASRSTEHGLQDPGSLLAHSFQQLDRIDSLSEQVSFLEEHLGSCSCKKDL

T2: p5 peptide of EGFL7 (human)
T2 construct: also called Peptide P5
T2 peptide: RACSTYRTIYRTA

T3: p2S (p2 peptide biotinylated through its free cysteine) (human, also: biotinylated (maleimide PEO2-biotin) on one of the two Cys, which one not given here)
T3 construct: The peptide has two cysteines; also called b-p2S
T3 peptide: RPRYACCPGWKRT


Columns and labels:
[1] = target: T1, mouse EGFL7 (mEGFL7-CB-His); test: SPR (Biacore), IgG over immobilized mEGFL7-CB at 37 C;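 also: IgG injected as twofold series from 0.5 to 1000 nM, 3 min association and 3.5 min dissociation, reference flow cell subtracted, kinetics fitted to 1:1 Langmuir model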
Experimental: Affinity determinations were performed by surface plasmon resonance using a BIAcore™-2000. Truncated EGFL7 or p5 peptide was immobilized (approximately 50-200 RU) in 10 mM sodium acetate pH 4.8 on a CMS sensor chip. Purified IgG variants were injected (using a 2-fold serial dilution of 0.5 to 1000 nM in PBST) at a flow rate of 30 μL/min. Each sample was analyzed with 3-minute association and 3.5-minute disassociation. After each injection the chip was regenerated using 10 mM glycine pH 1.7.
(§1) Binding response was corrected by subtracting a control flow cell from IgG variant flow cells. A 1:1 Languir model of simultaneous fitting of kₒₙ and koff was used for kinetics analysis.

p5 peptide of EGFL7 = target: T2, p5 peptide of EGFL7; test: SPR (Biacore), IgG over immobilized P5 peptide at 37 C;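 also: IgG variants injected at 0.5–1000 nM (2-fold series), 3 min association and 3.5 min dissociation, reference flow cell subtracted, kinetics fitted with a 1:1 Langmuir model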
[2] = target: T3, p2S (p2 peptide biotinylated through …); test: SPR (BIAcore-2000), IgG injected over immobilized p2S peptide;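 also: CM5 chip with immobilized peptide, IgG at 0.5–1000 nM in PBST, 3 min association and 3.5 min dissociation, reference-cell subtracted, rates fitted by 1:1 Langmuir model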
Experimental: Affinity determinations were performed by surface plasmon resonance using a BIAcore™-2000. […] Purified IgG variants were injected (using a 2-fold serial dilution of 0.5 to 1000 nM in PBST) at a flow rate of 30 μL/min. Each sample was analyzed with 3-minute association and 3.5-minute disassociation. After each injection the chip was regenerated using 10 mM glycine pH 1.7.
as §1

Row | Binder | Kd [1] | koff [1] | kon [1] | Kd (p5 peptide of EGFL7) | koff (p5 peptide of EGFL7) | kon (p5 peptide of EGFL7) | Kd [2] | koff [2] | kon [2]
1 | 18F7.v3 IgG (antibody, name in Kabat numbering, V domains shown, IgG; Kabat numbering; also called 18F7-KA) VH: EVQLVESGGGLVQPGGSLRLSCAASGYTFIDYYMNWVRQAPGKGLEWVGDINLDNGGTHYNQKFKGRFTISRDKSKNTAYLQMNSLRAEDTAVYYCAREGVYHDYDDYAMDYWGQGTLVTVSS VL: DIQMTQSPSSLSASVGDRVTITCRTSQSLVHINGITYLHWYQQKPGKAPKLLIYRVSNRFSGVPSRFSGSGSGTDFTLTISSLQPEDFATYYCSQSTHVPLTFGQGTKVEIKR | 1.64 nM | 9.05e-05 s⁻¹ | 55000 M⁻¹ s⁻¹ | 4.22 nM | 0.000858 s⁻¹ | 203000 M⁻¹ s⁻¹ | – | – | –
2 | 18F7.v6I IgG (antibody, V domains shown, IgG; Variant of 18F7.v6) VH: EVQLVESGGGLVQPGGSLRLSCAASGYTFIDYYMNWVRQAPGKGLEWVGDINLDNSGTHYNQKFKGRFTISRDKSKNTAYLQMNSLRAEDTAVYYCAREGVYHDYDDYAMDYWGQGTLVTVSS VL: DIQMTQSPSSLSASVGDRVTITCRTSQSLVHIQGITYLHWYQQKPGKAPKLLIYRVSNRFSGVPSRFSGSGSGTDFTLTISSLQPEDFATYYCGQSTHVPLTFGQGTKVEIK | 21.3 nM | 0.000488 s⁻¹ | 23000 M⁻¹ s⁻¹ | 16.7 nM | 0.00316 s⁻¹ | 190000 M⁻¹ s⁻¹ | – | – | –
3 | 18F7.v4 IgG (antibody, name in Kabat numbering, V domains shown, IgG; Kabat numbering; also called 18F7-KV) VH: EVQLVESGGGLVQPGGSLRLSCAASGYTFIDYYMNWVRQAPGKGLEWVGDINLDNGGTHYNQKFKGRFTISRDKSKNTVYLQMNSLRAEDTAVYYCAREGVYHDYDDYAMDYWGQGTLVTVSS VL: DIQMTQSPSSLSASVGDRVTITCRTSQSLVHINGITYLHWYQQKPGKAPKLLIYRVSNRFSGVPSRFSGSGSGTDFTLTISSLQPEDFATYYCSQSTHVPLTFGQGTKVEIKR | 4.15 nM | 0.000208 s⁻¹ | 50000 M⁻¹ s⁻¹ | 7.27 nM | 0.00132 s⁻¹ | 182000 M⁻¹ s⁻¹ | – | – | –
4 | 18F7.v6E IgG (antibody, V domains shown, IgG; Variant of 18F7.v6) VH: EVQLVESGGGLVQPGGSLRLSCAASGYTFIDYYMNWVRQAPGKGLEWVGDINLDNSGTHYNQKFKGRFTISRDKSKNTAYLQMNSLRAEDTAVYYCAREGVYHDYDDYAMDYWGQGTLVTVSS VL: DIQMTQSPSSLSASVGDRVTITCRTSQSLVHISGITYLHWYQQKPGKAPKLLIYRVSNRFSGVPSRFSGSGSGTDFTLTISSLQPEDFATYYCGQSTHVPLTFGQGTKVEIK | 9.9 nM | 0.000474 s⁻¹ | 48000 M⁻¹ s⁻¹ | 5.1 nM | 0.00154 s⁻¹ | 303000 M⁻¹ s⁻¹ | – | – | –
5 | 4F11.v1 IgG (antibody, V domains shown, Expressed as IgG in 293 cells; also called 4F11-graft; direct CDR-graft) VH: EVQLVESGGGLVQPGGSLRLSCAASGHTFTTYGMSWVRQAPGKGLEWVGWINTHSGVPTYADDFKGRFTISRDNSKNTLYLQMNSLRAEDTAVYYCARLGSSAVDYWGQGTLVTVSS VL: DIQMTQSPSSLSASVGDRVTITCKASQSVDYDGDSYMSWYQQKPGKAPKLLIYGASNLESGVPSRFSGSGSGTDFTLTISSLQPEDFATYYCQQNNEDPYTFGQGTKVEIKR | – | – | – | – | – | – | 96.8 nM | 0.00331 s⁻¹ | 34200 M⁻¹ s⁻¹
6 | 4F11.v2 IgG (antibody, name in Kabat numbering, V domains shown, IgG; Kabat numbering) VH: EVQLVESGGGLVQPGGSLRLSCAASGHTFTTYGMSWVRQAPGKGLEWVGWINTHSGVPTYADDFKGRFTISRDNSKNTTYLQMNSLRAEDTAVYYCARLGSSAVDYWGQGTLVTVSS VL: DIQMTQSPSSLSASVGDRVTITCKASQSVDYDGDSYMSWYQQKPGKAPKLLIYGASNLESGVPSRFSGSGSGTDFTLTISSLQPEDFATYYCQQNNEDPYTFGQGTKVEIKR | – | – | – | – | – | – | 54.4 nM | 0.00291 s⁻¹ | 53500 M⁻¹ s⁻¹
7 | 4F11.v4 IgG (antibody, V domains shown, IgG; Kabat numbering) VH: EVQLVESGGGLVQPGGSLRLSCAASGHTFTTYGMSWVRQAPGKGLEWVGWINTHSGVPTYADDFKGRFTISRDNSKNTVYLQMNSLRAEDTAVYYCARLGSSAVDYWGQGTLVTVSS VL: DIQMTQSPSSLSASVGDRVTITCKASQSVDYRGDSYMSWYQQKPGKAPKLLIYGASNLESGVPSRFSGSGSGTDFTLTISSLQPEDFATYYCQQNNEDPYTFGQGTKVEIK | – | – | – | – | – | – | 13.6 nM | 0.00314 s⁻¹ | 231000 M⁻¹ s⁻¹
8 | 4F11.v3 IgG (antibody, name in Kabat numbering, V domains shown, IgG; Kabat numbering) VH: EVQLVESGGGLVQPGGSLRLSCAASGHTFTTYGMSWVRQAPGKGLEWVGWINTHSGVPTYADDFKGRFTISRDNSKNTVYLQMNSLRAEDTAVYYCARLGSSAVDYWGQGTLVTVSS VL: DIQMTQSPSSLSASVGDRVTITCKASQSVDYDGDSYMSWYQQKPGKAPKLLIYGASNLESGVPSRFSGSGSGTDFTLTISSLQPEDFATYYCQQNNEDPYTFGQGTKVEIKR | – | – | – | – | – | – | 34.6 nM | 0.00292 s⁻¹ | 84500 M⁻¹ s⁻¹

The remaining binders from weak to strong by Kd [1], led by results:

Row | Kd [1] | koff [1] | kon [1] | Kd (p5 peptide of EGFL7) | koff (p5 peptide of EGFL7) | kon (p5 peptide of EGFL7) | Kd [2] | koff [2] | kon [2] | Binder
9 | 2.82 nM | 0.000274 s⁻¹ | 97000 M⁻¹ s⁻¹ | 6.3 nM | 0.002 s⁻¹ | 317000 M⁻¹ s⁻¹ | – | – | – | 18F7.v1 IgG (18F7-graft) (antibody, V domains shown, Expressed as IgG) VH: EVQLVESGGGLVQPGGSLRLSCAASGYTFIDYYMNWVRQAPGKGLEWVGDINLDNGGTHYNQKFKGRFTISRDNSKNTLYLQMNSLRAEDTAVYYCAREGVYHDYDDYAMDYWGQGTLVTVSS VL: DIQMTQSPSSLSASVGDRVTITCRTSQSLVHINGITYLHWYQQKPGKAPKLLIYRVSNRFSGVPSRFSGSGSGTDFTLTISSLQPEDFATYYCSQSTHVPLTFGQGTKVEIKR
10 | 2.04 nM | 0.000199 s⁻¹ | 98000 M⁻¹ s⁻¹ | 2.16 nM | 0.00102 s⁻¹ | 472000 M⁻¹ s⁻¹ | – | – | – | 18F7.v8 IgG (antibody, V domains shown, IgG; Kabat numbering) VH: EVQLVESGGGLVQPGGSLRLSCAASGYTFIDYYMNWVRQAPGKGLEWVGDINLDNGGTHYNQKFKGRFTISRDKSKNTAYLQMNSLRAEDTAVYYCAREGVYHDYDDYAMDYWGQGTLVTVSS VL: DIQMTQSPSSLSASVGDRVTITCRTSQSLVHINGITYLHWYQQKPGKAPKLLIYRVSNRFSGVPSRFSGSGSGTDFTLTISSLQPEDFATYYCVQSTHVPLTFGQGTKVEIK
11 | 1.81 nM | 0.000198 s⁻¹ | 110000 M⁻¹ s⁻¹ | 2.59 nM | 0.00119 s⁻¹ | 458000 M⁻¹ s⁻¹ | – | – | – | 18F7.v2 IgG (antibody, name in Kabat numbering, V domains shown, IgG; Kabat numbering; also called 18F7-K) VH: EVQLVESGGGLVQPGGSLRLSCAASGYTFIDYYMNWVRQAPGKGLEWVGDINLDNGGTHYNQKFKGRFTISRDKSKNTLYLQMNSLRAEDTAVYYCAREGVYHDYDDYAMDYWGQGTLVTVSS VL: DIQMTQSPSSLSASVGDRVTITCRTSQSLVHINGITYLHWYQQKPGKAPKLLIYRVSNRFSGVPSRFSGSGSGTDFTLTISSLQPEDFATYYCSQSTHVPLTFGQGTKVEIKR
12 | 1.61 nM | 0.000117 s⁻¹ | 73000 M⁻¹ s⁻¹ | 2.7 nM | 0.000892 s⁻¹ | 330000 M⁻¹ s⁻¹ | – | – | – | 18F7.v5 IgG (antibody, V domains shown, IgG; Kabat numbering) VH: EVQLVESGGGLVQPGGSLRLSCAASGYTFIDYYMNWVRQAPGKGLEWVGDINLDNGGTHYNQKFKGRFTISRDKSKNTAYLQMNSLRAEDTAVYYCAREGVYHDYDDYAMDYWGQGTLVTVSS VL: DIQMTQSPSSLSASVGDRVTITCRTSQSLVHINGITYLHWYQQKPGKAPKLLIYRVSNRGSGVPSRFSGSGSGTDFTLTISSLQPEDFATYYCSQSTHVPLTFGQGTKVEIK
13 | 1.58 nM | 9.32e-05 s⁻¹ | 59000 M⁻¹ s⁻¹ | 3.35 nM | 0.000763 s⁻¹ | 228000 M⁻¹ s⁻¹ | – | – | – | 18F7.v9 IgG (antibody, V domains shown, IgG; Kabat numbering) VH: EVQLVESGGGLVQPGGSLRLSCAASGYTFIDKYMNWVRQAPGKGLEWVGDINLDNGGTHYNQKFKGRFTISRDKSKNTAYLQMNSLRAEDTAVYYCAREGVYHDYDDYAMDYWGQGTLVTVSS VL: DIQMTQSPSSLSASVGDRVTITCRTSQSLVHINGITYLHWYQQKPGKAPKLLIYRVSNRFSGVPSRFSGSGSGTDFTLTISSLQPEDFATYYCSQSTHVPLTFGQGTKVEIK
14 | 1.38 nM | 9.58e-05 s⁻¹ | 70000 M⁻¹ s⁻¹ | 2.87 nM | 0.000718 s⁻¹ | 251000 M⁻¹ s⁻¹ | – | – | – | 18F7.v7 IgG (antibody, V domains shown, IgG; Kabat numbering) VH: EVQLVESGGGLVQPGGSLRLSCAASGYTFIDYYMNWVRQAPGKGLEWVGDINLDNGGTHYNQKFKGRFTISRDKSKNTAYLQMNSLRAEDTAVYYCAREGVYHDYDDYAMDYWGQGTLVTVSS VL: DIQMTQSPSSLSASVGDRVTITCRTSQSLVHINGITYLHWYQQKPGKAPKLLIYRVSNRFSGVPSRFSGSGSGTDFTLTISSLQPEDFATYYCAQSTHVPLTFGQGTKVEIK
15 | 1.22 nM | 0.000195 s⁻¹ | 160000 M⁻¹ s⁻¹ | 0.982 nM | 0.000811 s⁻¹ | 825000 M⁻¹ s⁻¹ | – | – | – | 18F7.v10 IgG (antibody, V domains shown, IgG; Kabat numbering) VH: EVQLVESGGGLVQPGGSLRLSCAASGYTFIDYYMNWVRQAPGKGLEWVGDINLDNGGTHYNQKFKGRFTISRDKSKNTAYLQMNSLRAEDTAVYYCAREGVYHPYDDYAMDYWGQGTLVTVSS VL: DIQMTQSPSSLSASVGDRVTITCRTSQSLVHINGITYLHWYQQKPGKAPKLLIYRVSNRFSGVPSRFSGSGSGTDFTLTISSLQPEDFATYYCSQSTHVPLTFGQGTKVEIK
16 | 0.8 nM | 1.64e-05 s⁻¹ | 21000 M⁻¹ s⁻¹ | 5.6 nM | 0.000607 s⁻¹ | 108000 M⁻¹ s⁻¹ | – | – | – | 18F7.v6J IgG (antibody, V domains shown, IgG; Variant of 18F7.v6) VH: EVQLVESGGGLVQPGGSLRLSCAASGYTFIDYYMNWVRQAPGKGLEWVGDINLDNSGTHYNQKFKGRFTISRDKSKNTAYLQMNSLRAEDTAVYYCAREGVYHDYDDYAMDYWGQGTLVTVSS VL: DIQMTQSPSSLSASVGDRVTITCRTSQSLVHINSITYLHWYQQKPGKAPKLLIYRVSNRFSGVPSRFSGSGSGTDFTLTISSLQPEDFATYYCGQSTHVPLTFGQGTKVEIK
